Results as given in the supplement of paper PMC12458215.
± gives the uncertainty stated by the source.

Tested on: HEK293T
Assay: plasma membrane surface immunostaining intensity (anti-HA, deep receptor scanning) (arbitrary fluorescence units); higher = higher plasma membrane expression

Sequence	plasma membrane surface immunostaining intensity (GPCR class: A)	plasma membrane surface immunostaining intensity (GPCR class: A (Olfactory))
MSGESMNFSDVFDSSEDYFVSVNTSYYSVDSEMLLCSLQEVRQFSRLFVPIAYSLICVFGLLGNILVVITFAFYKKARSMTDVYLLNMAIADILFVLTLPFWAVSHATGAWVFSNATCKLLKGIYAINFNCGMLLLTCISMDRYIAIVQATKSFRLRSRTLPRSKIICLVVWGLSVIISSSTFVFNQKYNTQGSDVCEPKYQTVSEPIRWKLLMLGLELLFGFFIPLMFMIFCYTFIVKTLVQAQNSKRHKAIRVIIAVVLVFLACQIPHNMVLLVTAANLGKMNRSCQSEKLIGYTKTVTEVLAFLHCCLNPVLYAFIGQKFRNYFLKILKDLWCVRRKYKSSGFSCAGRYSENISRQTSETADNDNASSFTM [CCR6]	418 ± 33	–
MSGTKLEDSPPCRNWSSASELNETQEPFLNPTDYDDEEFLRYLWREYLHPKEYEWVLIAGYIIVFVVALIGNVLVCVAVWKNHHMRTVTNYFIVNLSLADVLVTITCLPATLVVDITETWFFGQSLCKVIPYLQTVSVSVSVLTLSCIALDRWYAICHPLMFKSTAKRARNSIVIIWIVSCIIMIPQAIVMECSTVFPGLANKTTLFTVCDERWGGEIYPKMYHICFFLVTYMAPLCLMVLAYLQIFRKLWCRQIPGTSSVVQRKWKPLQPVSQPRGPGQPTKSRMSAVAAEIKQIRARRKTARMLMIVLLVFAICYLPISILNVLKRVFGMFAHTEDRETVYAWFTFSHWLVYANSAANPIIYNFLSGKFREEFKAAFSCCCLGVHHRQEDRLTRGRTSTESRKSLTTQISNFDNISKLSEQVVLTSISTLPAANGAGPLQNW [HCRTR2]	5620 ± 490	–
MSGTNQSSVSEFLLLGLSRQPQQQHLLFVFFLSMYLATVLGNLLIILSVSIDSCLHTPMYFFLSNLSFVDICFSFTTVPKMLANHILETQTISFCGCLTQMYFVFMFVDMDNFLLAVMAYDHFVAVCHPLHYTAKMTHQLCALLVAGLWVVANLNVLLHTLLMAPLSFCADNAITHFFCDVTPLLKLSCSDTHLNEVIILSEGALVMITPFLCILASYMHITCTVLKVPSTKGRWKAFSTCGSHLAVVLLFYSTIIAVYFNPLSSHSAEKDTMATVLYTVVTPMLNPFIYSLRNRYLKGALKKVVGRVVFSV [OR1F1]	–	278 ± 120
MSIMMLPMEQKIQWVPTSLQDITAVLGTEAYTEEDKSMVSHAQKSQHSCLSHSRWLRSPQVTGGSWDLRIRPSKDSSSFRQAQCLRKDPGANNHLESQGVRGTAGDADRELRGPSEKATAGQPRVTLLPTPHVSGLSQEFESHWPEIAERSPCVAGVIPVIYYSVLLGLGLPVSLLTAVALARLATRTRRPSYYYLLALTASDIIIQVVIVFAGFLLQGAVLARQVPQAVVRTANILEFAANHASVWIAILLTVDRYTALCHPLHHRAASSPGRTRRAIAAVLSAALLTGIPFYWWLDMWRDTDSPRTLDEVLKWAHCLTVYFIPCGVFLVTNSAIIHRLRRRGRSGLQPRVGKSTAILLGITTLFTLLWAPRVFVMLYHMYVAPVHRDWRVHLALDVANMVAMLHTAANFGLYCFVSKTFRATVRQVIHDAYLPCTLASQPEGMAAKPVMEPPGLPTGAEV [GPR142]	165 ± 58	–
MSITKAWNSSSVTMFILLGFTDHPELQALLFVTFLGIYLTTLAWNLALIFLIRGDTHLHTPMYFFLSNLSFIDICYSSAVAPNMLTDFFWEQKTISFVGCAAQFFFFVGMGLSECLLLTAMAYDRYAAISSPLLYPTIMTQGLCTRMVVGAYVGGFLSSLIQASSIFRLHFCGPNIINHFFCDLPPVLALSCSDTFLSQVVNFLVVVTVGGTSFLQLLISYGYIVSAVLKIPSAEGRWKACNTCASHLMVVTLLFGTALFVYLRPSSSYLLGRDKVVSVFYSLVIPMLNPLIYSLRNKEIKDALWKVLERKKVFS [OR5A1]	–	122 ± 20
MSLFLSNLSTNDSSLWKENHNSTDLLNPPGTLNIYLFCLTCLMTFAALVGSIYSLISLLKMQNRTVVSMLVASWSVDDLMSVLSVTIFMFLQWPNEVPGYFQFLCTTSALMYLCQGLSSNLKATLLVSYNFYTMHRGVGSQTASRRSGQVLGVVLTVWAASLLLSALPLCGWGAFVRTPWGCLVDCSSSYVLFLSIVYALAFGLLVGLSVPLTHRLLCSEEPPRLHSNYQEISRGASIPGTPPTAGRVVSLSPEDAPGPSLRRSGGCSPSSDTVFGPGAPAAAGAEACRRENRGTLYGTRSFTVSVAQKRFALILALTKVVLWLPMMMHMVVQNVVGFQSLPLETFSFLLTLLATTVTPVFVLSKRWTHLPCGCIINCRQNAYAVASDGKKIKRKGFEFNLSFQKSYGIYKIAHEDYYDDDENSIFYHNLMNSECETTKDPQRDNRNIFNAIKVEISTTPSLDSSTQRGINKCTNTDITEAKQDSNNKKDAFSDKTGGDINYEETTFSEGPERRLSHEESQKPDLSDWEWCRSKSERTPRQRSGYALAIPLCAFQGTVSLHAPTGKTLSLSTYEVSAEGQKITPASKKIEVYRSKSVGHEPNSEDSSSTFVDTSVKIHLEVLEICDNEEALDTVSIISNISQSSTQVRSPSLRYSRKENRFVSCDLGETASYSLFLPTSNPDGDINISIPDTVEAHRQNSKRQHQERDGYQEEIQLLNKAYRKREEESKGS [GPR149]	1060 ± 320	–
MSNASLLTAFILMGLPHAPALDAPLFGVFLVVYVLTVLGNLLILLVIRVDSHLHTTMYYFLTNLSFIDMWFSTVTVPKLLMTLVFPSGRAISFHSCMAQLYFFHFLGGTECFLYRVMSCDRYLAISYPLRYTSMMTGRSCTLLATSTWLSGSLHSAVQAILTFHLPYCGPNWIQHYLCDAPPILKLACADTSAIETVIFVTVGIVASGCFVLIVLSYVSIVCSILRIRTSEGKHRAFQTCASHCIVVLCFFGPGLFIYLRPGSRKAVDGVVAVFYTVLTPLLNPVVYTLRNKEVKKALLKLKDKVAHSQSK [OR10G8]	–	114 ± 4.5
MSNATLLTAFILTGLPHAPGLDAPLFGIFLVVYVLTVLGNLLILLVIRVDSHLHTPMYYFLTNLSFIDMWFSTVTVPKMLMTLVSPSGRTISFHSCVAQLYFFHFLGSTECFLYTVMSYDRYLAISYPLRYTNMMTGRSCALLATGTWLSGSLHSAVQTILTFHLPYCGPNQIQHYFCDAPPILKLACADTSANEMVIFVNIGLVASGCFVLIVLSYVSIVCSILRIRTSEGRHRAFQTCASHCIVVLCFFGPGLFIYLRPGSRDALHGVVAVFYTTLTPLFNPVVYTLRNKEVKKALLKLKNGSVFAQGE [OR10G7]	–	315 ± 110
MSNITDPQMWDFDDLNFTGMPPADEDYSPCMLETETLNKYVVIIAYALVFLLSLLGNSLVMLVILYSRVGRSVTDVYLLNLALADLLFALTLPIWAASKVNGWIFGTFLCKVVSLLKEVNFYSGILLLACISVDRYLAIVHATRTLTQKRHLVKFVCLGCWGLSMNLSLPFFLFRQAYHPNNSSPVCYEVLGNDTAKWRMVLRILPHTFGFIVPLFVMLFCYGFTLRTLFKAHMGQKHRAMRVIFAVVLIFLLCWLPYNLVLLADTLMRTQVIQESCERRNNIGRALDATEILGFLHSCLNPIIYAFIGQNFRHGFLKILAMHGLVSKEFLARHRVTSYTSSSVNVSSNL [CXCR1]	5900 ± 170	–
MSPCGPLNLSLAGEATTCAAPWVPNTSAVPPSGASPALPIFSMTLGAVSNLLALALLAQAAGRLRRRRSAATFLLFVASLLATDLAGHVIPGALVLRLYTAGRAPAGGACHFLGGCMVFFGLCPLLLGCGMAVERCVGVTRPLLHAARVSVARARLALAAVAAVALAVALLPLARVGRYELQYPGTWCFIGLGPPGGWRQALLAGLFASLGLVALLAALVCNTLSGLALLRARWRRRSRRPPPASGPDSRRRWGAHGPRSASASSASSIASASTFFGGSRSSGSARRARAHDVEMVGQLVGIMVVSCICWSPMLVLVALAVGGWSSTSLQRPLFLAVRLASWNQILDPWVYILLRQAVLRQLLRLLPPRAGAKGGPAGLGLTPSAWEASSLRSSRHSGLSHF [PTGER1]	1460 ± 250	–
MSQVTNTTQEGIYFILTDIPGFEASHIWISIPVCCLYTISIMGNTTILTVIRTEPSVHQRMYLFLSMLALTDLGLTLTTLPTVMQLLWFNVRRISSEACFAQFFFLHGFSFMESSVLLAMSVDCYVAICCPLHYASILTNEVIGRTGLAIICCCVLAVLPSLFLLKRLPFCHSHLLSRSYCLHQDMIRLVCADIRLNSWYGFALALLIIIVDPLLIVISYTLILKNILGTATWAERLRALNNCLSHILAVLVLYIPMVGVSMTHRFAKHASPLVHVIMANIYLLAPPVMNPIIYSVKNKQIQWGMLNFLSLKNMHSR [OR51Q1]	–	152 ± 70
MSSNSSLLVAVQLCYANVNGSCVKIPFSPGSRVILYIVFGFGAVLAVFGNLLVMISILHFKQLHSPTNFLVASLACADFLVGVTVMPFSMVRTVESCWYFGRSFCTFHTCCDVAFCYSSLFHLCFISIDRYIAVTDPLVYPTKFTVSVSGICISVSWILPLMYSGAVFYTGVYDDGLEELSDALNCIGGCQTVVNQNWVLTDFLSFFIPTFIMIILYGNIFLVARRQAKKIENTGSKTESSSESYKARVARRERKAAKTLGVTVVAFMISWLPYSIDSLIDAFMGFITPACIYEICCWCAYYNSAMNPLIYALFYPWFRKAIKVIVTGQVLKNSSATMNLFSEHI [TAAR6]	175 ± 65	–
MSVCYRPPGNETLLSWKTSRATGTAFLLLAALLGLPGNGFVVWSLAGWRPARGRPLAATLVLHLALADGAVLLLTPLFVAFLTRQAWPLGQAGCKAVYYVCALSMYASVLLTGLLSLQRCLAVTRPFLAPRLRSPALARRLLLAVWLAALLLAVPAAVYRHLWRDRVCQLCHPSPVHAAAHLSLETLTAFVLPFGLMLGCYSVTLARLRGARWGSGRHGARVGRLVSAIVLAFGLLWAPYHAVNLLQAVAALAPPEGALAKLGGAGQAARAGTTALAFFSSSVNPVLYVFTAGDLLPRAGPRFLTRLFEGSGEARGGGRSREGTMELRTTPQLKVVGQGRGNGDPGGGMEKDGPEWDL [LTB4R2]	4310 ± 330	–
MSYFYRLKLMKEAVLVKLPFTSLPLLLQTLSRKSRDMEIKNYSSSTSGFILLGLSSNPQLQKPLFAIFLIMYLLAAVGNVLIIPAIYSDPRLHTPMYFFLSNLSFMDICFTTVIVPKMLVNFLSETKVISYVGCLAQMYFFMAFGNTDSYLLASMAIDRLVAICNPLHYDVVMKPRHCLLMLLGSCSISHLHSLFRVLLMSRLSFCASHIIKHFFCDTQPVLKLSCSDTSSSQMVVMTETLAVIVTPFLCIIFSYLRIMVTVLRIPSAAGKWKAFSTCGSHLTAVALFYGSIIYVYFRPLSMYSVVRDRVATVMYTVVTPMLNPFIYSLRNKDMKRGLKKLQDRIYR [OR1L6]	–	247 ± 87
MTAAIRRQRELSILPKVTLEAMNTTVMQGFNRSERCPRDTRIVQLVFPALYTVVFLTGILLNTLALWVFVHIPSSSTFIIYLKNTLVADLIMTLMLPFKILSDSHLAPWQLRAFVCRFSSVIFYETMYVGIVLLGLIAFDRFLKIIRPLRNIFLKKPVFAKTVSIFIWFFLFFISLPNTILSNKEATPSSVKKCASLKGPLGLKWHQMVNNICQFIFWTVFILMLVFYVVIAKKVYDSYRKSKSKDRKNNKKLEGKVFVVVAVFFVCFAPFHFARVPYTHSQTNNKTDCRLQNQLFIAKETTLFLAATNICMDPLIYIFLCKKFTEKLPCMQGRKTTASSQENHSSQTDNITLG [P2RY13]	239 ± 12	–
MTEFHLQSQMPSIRLIFRRLSLGRIKPSQSPRCSTSFMVVPSFSIAEHWRRMKGANLSQGMEFELLGLTTDPQLQRLLFVVFLGMYTATLLGNLVMFLLIHVSATLHTPMYSLLKSLSFLDFCYSSTVVPQTLVNFLAKRKVISYFGCMTQMFFYAGFATSECYLIAAMAYDRYAAICNPLLYSTIMSPEVCASLIVGSYSAGFLNSLIHTGCIFSLKFCGAHVVTHFFCDGPPILSLSCVDTSLCEILLFIFAGFNLLSCTLTILISYFLILNTILKMSSAQGRFKAFSTCASHLTAICLFFGTTLFMYLRPRSSYSLTQDRTVAVIYTVVIPVLNPLMYSLRNKDVKKALIKVWGRKTME [OR5AU1]	–	419 ± 110
